# Experimental data: publication PMC3316577
# How the values were obtained:
# [1] = molecular target: CBFβ140-His (residues 1-140 of CBFβ with six histidine residues at the N-terminus) (human) (UniProt Q13951); test: SEC
# [2] = molecular target: His-tagged CBFβ187 (mouse CBFβ, residues 1-187) (mouse) (UniProt Q08024); test: SEC
# [3] = molecular target: CBFβ140-His (residues 1-140 of CBFβ with six histidine residues at the N-terminus) (human) (UniProt Q13951); test: SEC; Vif-CBFβ complexes co-expressed and purified by nickel affinity, Superdex 200 10/300 GL, 20 mM Tris-HCl pH 8.0, 150 mM NaCl, 10% glycerol; peak fractions by SDS-PAGE and Coomassie staining
# Chain of UniProt Q13951 (Q13951 1-140): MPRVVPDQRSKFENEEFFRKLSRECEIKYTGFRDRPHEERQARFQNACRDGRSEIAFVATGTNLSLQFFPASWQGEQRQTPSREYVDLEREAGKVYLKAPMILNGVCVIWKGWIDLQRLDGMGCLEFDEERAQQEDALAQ
# Chain of UniProt Q08024 (Q08024 whole entry, the tested form may be a part): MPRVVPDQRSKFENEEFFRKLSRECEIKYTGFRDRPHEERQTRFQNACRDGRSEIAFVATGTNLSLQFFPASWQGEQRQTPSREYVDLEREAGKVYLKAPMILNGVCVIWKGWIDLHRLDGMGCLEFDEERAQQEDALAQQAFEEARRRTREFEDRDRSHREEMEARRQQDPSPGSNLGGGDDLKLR
Substance,stoichiometry N [1],stoichiometry N [2],stoichiometry N [3]
Elongin B / Elongin C (residues 17 to 112) (from UniProt Q15370 1-118; Q15369 17-112) (complex),1,1,–
full-length HIV-1 Vif (residues 1-192) (from UniProt P12504) (natural protein),1,1,1
truncated HIV-1 Vif140 (residues 1-140) (from UniProt P12504 1-140) (domain or fragment),–,–,1
truncated HIV-1 Vif176 (residues 1-176) (from UniProt P12504 1-176) (domain or fragment),–,–,1
